“And” between values parts separate entries of the source, which are not always exact repeats. Equal values may be shown once.
Tests used:
Experiment in all cases: BLI
Settings in all cases: both partners purified
fHbp m001928 = biological target: T1, fHbp m001928 (Neisseria meningitidis; fHbp …, chimera)
T1 chain: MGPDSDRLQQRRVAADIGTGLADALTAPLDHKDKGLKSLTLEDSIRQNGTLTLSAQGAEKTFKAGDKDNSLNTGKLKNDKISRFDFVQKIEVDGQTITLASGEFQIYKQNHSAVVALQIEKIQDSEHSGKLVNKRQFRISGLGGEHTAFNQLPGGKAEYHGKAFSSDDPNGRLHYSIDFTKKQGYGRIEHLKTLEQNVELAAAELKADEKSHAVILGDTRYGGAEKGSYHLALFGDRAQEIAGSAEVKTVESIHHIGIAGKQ

fHbp m002332 = biological target: T2, fHbp m002332 (Neisseria meningitidis; fHbp …, chimera)
T2 chain: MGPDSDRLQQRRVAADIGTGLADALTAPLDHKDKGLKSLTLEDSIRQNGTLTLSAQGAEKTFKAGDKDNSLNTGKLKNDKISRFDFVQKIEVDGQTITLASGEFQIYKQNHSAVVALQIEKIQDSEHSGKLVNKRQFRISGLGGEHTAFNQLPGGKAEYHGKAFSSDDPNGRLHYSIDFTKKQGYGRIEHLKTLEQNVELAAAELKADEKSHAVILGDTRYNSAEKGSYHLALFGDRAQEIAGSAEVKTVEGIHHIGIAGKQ

fHbp m002252 = biological target: T3, fHbp m002252 (Neisseria meningitidis; fHbp …, chimera)
T3 chain: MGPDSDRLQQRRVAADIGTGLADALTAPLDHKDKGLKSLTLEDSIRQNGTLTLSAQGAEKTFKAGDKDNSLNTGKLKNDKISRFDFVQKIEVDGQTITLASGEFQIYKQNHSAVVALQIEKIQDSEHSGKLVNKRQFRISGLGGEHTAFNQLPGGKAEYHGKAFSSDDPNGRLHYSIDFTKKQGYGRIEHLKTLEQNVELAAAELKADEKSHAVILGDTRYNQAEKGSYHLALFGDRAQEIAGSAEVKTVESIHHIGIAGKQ

fHbp m002392 = biological target: T4, fHbp m002392 (Neisseria meningitidis; fHbp …, chimera)
T4 chain: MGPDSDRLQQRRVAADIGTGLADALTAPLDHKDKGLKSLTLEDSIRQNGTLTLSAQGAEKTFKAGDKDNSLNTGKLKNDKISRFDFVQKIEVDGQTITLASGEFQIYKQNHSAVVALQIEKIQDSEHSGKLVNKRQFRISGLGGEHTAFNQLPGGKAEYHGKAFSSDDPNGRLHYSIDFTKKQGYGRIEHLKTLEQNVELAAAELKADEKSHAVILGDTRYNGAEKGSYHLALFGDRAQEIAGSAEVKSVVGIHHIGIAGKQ

fHbp m002420 = biological target: T5, fHbp m002420 (Neisseria meningitidis, designed fHbp …, chimera)
T5 chain: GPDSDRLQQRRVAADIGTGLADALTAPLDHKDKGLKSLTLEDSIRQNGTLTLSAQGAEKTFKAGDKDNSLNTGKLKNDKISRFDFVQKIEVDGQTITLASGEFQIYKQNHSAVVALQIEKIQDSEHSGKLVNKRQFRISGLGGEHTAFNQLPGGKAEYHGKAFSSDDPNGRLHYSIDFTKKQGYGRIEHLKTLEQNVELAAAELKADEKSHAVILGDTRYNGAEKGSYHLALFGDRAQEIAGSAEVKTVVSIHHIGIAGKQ

fHbp m002335 = biological target: T6, fHbp m002335 (Neisseria meningitidis; fHbp …, chimera)
T6 chain: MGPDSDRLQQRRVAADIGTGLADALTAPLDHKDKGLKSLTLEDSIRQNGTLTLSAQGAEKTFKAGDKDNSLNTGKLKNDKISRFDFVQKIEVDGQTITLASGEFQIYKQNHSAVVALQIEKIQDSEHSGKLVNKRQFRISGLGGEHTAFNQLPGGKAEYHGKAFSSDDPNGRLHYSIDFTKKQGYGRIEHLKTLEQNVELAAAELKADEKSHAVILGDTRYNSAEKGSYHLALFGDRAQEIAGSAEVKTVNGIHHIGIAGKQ

fHbp m002413 = biological target: T7, fHbp m002413 (Neisseria meningitidis, designed fHbp …, chimera)
T7 chain: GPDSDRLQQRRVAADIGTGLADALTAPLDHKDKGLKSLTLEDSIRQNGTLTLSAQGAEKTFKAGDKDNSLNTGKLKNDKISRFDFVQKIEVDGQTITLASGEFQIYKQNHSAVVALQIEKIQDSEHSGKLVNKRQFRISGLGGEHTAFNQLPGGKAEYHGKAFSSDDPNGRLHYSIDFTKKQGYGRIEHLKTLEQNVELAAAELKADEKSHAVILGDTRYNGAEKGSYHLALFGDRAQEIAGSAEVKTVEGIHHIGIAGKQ

fHbp m001927 = biological target: T8, fHbp m001927 (Neisseria meningitidis; fHbp …, chimera)
T8 chain: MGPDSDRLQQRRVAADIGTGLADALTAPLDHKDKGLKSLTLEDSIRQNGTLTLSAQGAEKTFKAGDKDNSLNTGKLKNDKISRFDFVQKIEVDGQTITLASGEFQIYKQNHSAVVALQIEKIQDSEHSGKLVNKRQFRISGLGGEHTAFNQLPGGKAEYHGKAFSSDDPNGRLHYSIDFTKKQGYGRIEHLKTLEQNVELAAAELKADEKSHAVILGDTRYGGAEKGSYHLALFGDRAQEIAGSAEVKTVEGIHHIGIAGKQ

fHbp m002389 = biological target: T9, fHbp m002389 (Neisseria meningitidis; fHbp …, chimera)
T9 chain: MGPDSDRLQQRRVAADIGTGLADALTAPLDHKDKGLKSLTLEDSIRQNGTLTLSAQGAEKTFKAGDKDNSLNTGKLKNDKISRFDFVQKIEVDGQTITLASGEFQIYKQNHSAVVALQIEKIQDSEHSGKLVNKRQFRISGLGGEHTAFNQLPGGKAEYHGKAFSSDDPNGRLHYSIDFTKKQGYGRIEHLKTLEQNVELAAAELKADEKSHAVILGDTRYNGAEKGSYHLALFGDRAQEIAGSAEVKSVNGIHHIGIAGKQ

B1: chimeric antibody h12C1 (antibody, V domains shown)
VH: QVQLQESGPELVKPGASVKISCKASGYSFSDYNMSWVKQSNGKSLEWIGIIDPKYGTINYNQKFKGKATLTVDQASSTAYMQLNSLTSEDSAVYYCVRDYYGSSYFDYWGQGTTLTVSS
VL: DIVLTQSPSSIYASLGERVTLTCKASQDIHNYLNWFQQKPGKSPKTLIYRANRLVDGVPSRFSGGGSGQDYSLTISSLEFEDIGIYYCLQYDEFPPTFGGGTRLEIK
notes: also called humanized 12C1; source: Expi293, purified (MabSelect SuRe, SEC); copies: 2 + 2
Kd (fHbp m001928): 55.3 nM | koff (fHbp m001928): 0.0146 s⁻¹ | kon (fHbp m001928): 264000 ± 5240 M⁻¹ s⁻¹ | Kd (fHbp m002332): 1.19 nM | koff (fHbp m002332): 0.000253 s⁻¹ | kon (fHbp m002332): 212700 ± 1530 M⁻¹ s⁻¹ | Kd (fHbp m002252): 0.269 nM | koff (fHbp m002252): 4.04e-05 s⁻¹ | kon (fHbp m002252): 150400 ± 1270 M⁻¹ s⁻¹ | Kd (fHbp m002392): 0.892 nM | koff (fHbp m002392): 0.000212 s⁻¹ | kon (fHbp m002392): 237100 ± 1550 M⁻¹ s⁻¹ | Kd (fHbp m002420): 70.4 nM | koff (fHbp m002420): 0.02143 ± 0.00013 s⁻¹ | kon (fHbp m002420): 304000 ± 6160 M⁻¹ s⁻¹ | Kd (fHbp m002335): 0.235 nM | koff (fHbp m002335): 8.01e-05 s⁻¹ | kon (fHbp m002335): 340700 ± 1750 M⁻¹ s⁻¹ | Kd (fHbp m002413): 1.1 nM | koff (fHbp m002413): 0.000237 s⁻¹ | kon (fHbp m002413): 214700 ± 1140 M⁻¹ s⁻¹ | Kd (fHbp m001927): 0.38 nM | koff (fHbp m001927): 7.94e-05 s⁻¹ | kon (fHbp m001927): 209200 ± 1710 M⁻¹ s⁻¹ | Kd (fHbp m002389): 1.16 nM | koff (fHbp m002389): 0.000257 s⁻¹ | kon (fHbp m002389): 220700 ± 1060 M⁻¹ s⁻¹

B2: chimeric antibody hJAR5 (antibody, V domains shown)
VH: QVQMQQPGAELVKPGASVKLSCKASGYTFISYWMHWVKQRPGRGLEWIGRIAPDTGIIYYNEKFKNKATLTVDTPSSTAYMQLNSLTSEDSAVYYCARYLKYDGSTYRFDYWGQGTTLTVSS
VL: DIVMTQAAPSVPVTPGESVSISCRSSKSLLHSNGNTYLFWFLQRPGQSPQLLIYRMSNLASGVPDRFSGSGSGTSFTLRISRVEAEDVGVYYCMQHLEYPYTFGGGTKLEIK
notes: also called hJAR5-2; humanized JAR5; source: Expi293, purified (MabSelect SuRe, SEC); copies: 2 + 2
Kd (fHbp m001928): 0.741 nM | Kd (fHbp m002332): 0.662 nM | Kd (fHbp m002252): 5.07 nM | Kd (fHbp m002392): 0.711 nM and 0.689 nM | Kd (fHbp m002420): 0.256 nM | Kd (fHbp m002335): 0.883 nM | Kd (fHbp m002413): 1.09 nM | Kd (fHbp m001927): 0.824 nM | Kd (fHbp m002389): 0.772 nM

Source: article PMC12319226 (Frontiers in Bioinformatics, 2025)
